From patent publication US20050025760A1 (KEIO UNIVERSITY, published 2005)

How the values were obtained:
Test in all cases: immunoprecipitation of point-mutated molecules (FIG. 5)
[1] = biological target: T1, Dsg3-M1 (human, UniProt P32926 50-615, T25H; Y28C; Q29A)
T1 construct: extracellular domain; Dsg3-specific residues changed to the Dsg1-specific ones; also called point-mutated human Dsg3 molecule M1; not shown: His tag of vector pEVmod-His
T1 sequence (looked up): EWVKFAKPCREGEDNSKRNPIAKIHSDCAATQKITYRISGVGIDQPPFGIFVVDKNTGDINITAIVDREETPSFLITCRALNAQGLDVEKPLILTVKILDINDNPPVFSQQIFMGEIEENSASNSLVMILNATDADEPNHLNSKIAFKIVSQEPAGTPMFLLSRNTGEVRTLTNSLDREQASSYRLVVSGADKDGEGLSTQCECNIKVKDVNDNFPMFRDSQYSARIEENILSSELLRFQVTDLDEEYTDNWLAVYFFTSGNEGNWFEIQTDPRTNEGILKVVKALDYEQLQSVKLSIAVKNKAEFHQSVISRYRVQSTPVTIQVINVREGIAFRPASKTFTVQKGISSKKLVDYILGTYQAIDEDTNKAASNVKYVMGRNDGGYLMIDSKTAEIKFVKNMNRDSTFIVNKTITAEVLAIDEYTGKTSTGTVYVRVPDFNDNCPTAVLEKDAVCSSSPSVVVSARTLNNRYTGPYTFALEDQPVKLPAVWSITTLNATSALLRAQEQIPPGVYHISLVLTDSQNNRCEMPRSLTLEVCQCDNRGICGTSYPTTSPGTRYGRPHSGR

[2] = biological target: T2, Dsg3-M2 (human, UniProt P32926 50-615, T31N; K33Q; I34V)
T2 construct: extracellular domain; also called point-mutated human Dsg3 molecule M2; not shown: His tag of vector pEVmod-His
T2 sequence (looked up): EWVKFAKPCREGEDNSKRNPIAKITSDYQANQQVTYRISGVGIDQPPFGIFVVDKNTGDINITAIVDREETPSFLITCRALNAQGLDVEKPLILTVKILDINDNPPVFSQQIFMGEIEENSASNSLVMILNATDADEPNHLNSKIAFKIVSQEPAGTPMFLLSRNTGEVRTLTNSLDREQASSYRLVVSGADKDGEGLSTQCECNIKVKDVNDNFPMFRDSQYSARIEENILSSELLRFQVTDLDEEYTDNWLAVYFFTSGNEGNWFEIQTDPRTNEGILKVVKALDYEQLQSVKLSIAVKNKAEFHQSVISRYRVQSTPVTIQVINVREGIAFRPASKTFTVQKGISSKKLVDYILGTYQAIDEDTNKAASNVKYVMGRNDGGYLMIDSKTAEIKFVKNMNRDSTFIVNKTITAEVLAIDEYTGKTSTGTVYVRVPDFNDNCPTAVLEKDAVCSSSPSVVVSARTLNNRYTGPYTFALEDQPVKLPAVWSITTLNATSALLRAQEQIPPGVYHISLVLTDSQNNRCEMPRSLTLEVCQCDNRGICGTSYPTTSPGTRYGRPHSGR

[3] = biological target: T3, Dsg3-M6 (human, UniProt P32926 50-615, A83S; Q84M)
T3 construct: extracellular domain; also called point-mutated human Dsg3 molecule M6; not shown: His tag of vector pEVmod-His
T3 sequence (looked up): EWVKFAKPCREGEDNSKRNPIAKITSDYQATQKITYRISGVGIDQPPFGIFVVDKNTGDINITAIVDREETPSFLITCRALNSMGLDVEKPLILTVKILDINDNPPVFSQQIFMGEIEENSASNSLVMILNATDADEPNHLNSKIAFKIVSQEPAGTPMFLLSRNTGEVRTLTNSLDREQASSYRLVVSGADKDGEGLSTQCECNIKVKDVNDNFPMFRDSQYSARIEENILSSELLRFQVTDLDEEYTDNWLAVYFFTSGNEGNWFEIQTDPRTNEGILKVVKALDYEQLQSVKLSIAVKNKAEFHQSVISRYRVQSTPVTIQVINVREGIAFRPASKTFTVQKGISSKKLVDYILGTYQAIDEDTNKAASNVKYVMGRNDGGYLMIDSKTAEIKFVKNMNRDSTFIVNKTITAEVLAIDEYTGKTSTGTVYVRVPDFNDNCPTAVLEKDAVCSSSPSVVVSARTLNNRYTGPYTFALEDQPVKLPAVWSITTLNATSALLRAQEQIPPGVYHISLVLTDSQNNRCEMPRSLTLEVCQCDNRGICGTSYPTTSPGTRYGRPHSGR

[4] = biological target: T4, Dsg1-M1-2 (human, UniProt Q02413 50-545, H25T; C28Y; A29Q; N31T; Q33K; V34I)
T4 construct: extracellular domain; Dsg1-specific residues changed to the Dsg3-specific ones; also called hDsg1-M1-2
T4 sequence (looked up): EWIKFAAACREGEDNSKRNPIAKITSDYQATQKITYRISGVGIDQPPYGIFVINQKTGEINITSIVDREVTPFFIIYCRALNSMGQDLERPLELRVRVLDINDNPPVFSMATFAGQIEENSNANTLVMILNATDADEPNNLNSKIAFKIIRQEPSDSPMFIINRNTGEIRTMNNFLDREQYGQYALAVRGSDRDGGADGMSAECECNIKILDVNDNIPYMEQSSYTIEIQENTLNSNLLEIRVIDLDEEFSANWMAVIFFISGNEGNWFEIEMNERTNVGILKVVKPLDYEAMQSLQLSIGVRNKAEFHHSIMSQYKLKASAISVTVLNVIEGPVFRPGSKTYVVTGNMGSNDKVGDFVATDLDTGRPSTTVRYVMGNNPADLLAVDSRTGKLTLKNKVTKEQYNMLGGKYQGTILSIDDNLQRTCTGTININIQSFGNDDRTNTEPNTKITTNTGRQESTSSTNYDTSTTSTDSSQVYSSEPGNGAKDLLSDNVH

binding result [1]: binds
binding result [2]: binds
binding result [3]: binds
binding result [4]: no binding
B1: anti-Dsg3 monoclonal antibody AK23 (antibody, mouse IgG1, V domains shown)
VH: QVQLQQSGTELVKPGASVKLSCKSSGYTFTSYWINWVKQRPGQGLEWIGNINPSNGGINYNEKFKSKATLTVDKSSSTAYMQLKSLTSEDSAVYYCARGGYDGYPWGQGTTVTVS
VL: DIQMTQSPKFLLVSAGDRVTITCKASQSVSYDVAWYQQKPGQSPKLLISYASNRYTGVPDRFTGSGYGSDFTFTISTVQTEDLAVYFCQQDYSSPWTFGGGTKLELKR
notes: Mouse IgG1 kappa hybridoma antibody
